# Publication PMC13105642
# B1: Lon Peptidase 1 (LONP1) (enzyme)
# chain: FWEASSRGGGAFSGGEDASEGGAEEGAGGAGGSAGAGEGPVITALTPMTIPDVFPHLPLIAITRNPVFPRFIKIIEVKNKKLVELLRRKVRLAQPYVGVFLKRDDSNESDVVESLDEIYHTGTFAQIHEMQDLGDKLRMIVMGHRRVHISRQLEVEPEEPEAENKHKPRRKSKRGKKEAEDELSARHPAELAMEPTPELPAEVLMVEVENVVHEDFQVTEEVKALTAEIVKTIRDIIALNPLYRESVLQMMQAGQRVVDNPIYLSDMGAALTGAESHELQDVLEETNIPKRLYKALSLLKKEFELSKLQQRLGREVEEKIKQTHRKYLLQEQLKIIKKELGLEKDDKDAIEEKFRERLKELVVPKHVMDVVDEELSKLGLLDNHSSEFNVTRNYLDWLTSIPWGKYSNENLDLARAQAVLEEDHYGMEDVKKRILEFIAVSQLRGSTQGKILCFYGPPGVGKTSIARSIARALNREYFRFSVGGMTDVAEIKGHRRTYVGAMPGKIIQCLKKTKTENPLILIDEVDKIGRGYQGDPSSALLELLDPEQNANFLDHYLDVPVDLSKVLFICTANVTDTIPEPLRDRMEMINVSGYVAQEKLAIAERYLVPQARALCGLDESKAKLSSDVLTLLIKQYCRESGVRNLQKQVEKVLRKSAYKIVSGEAESVEVTPENLQDFVGKPVFTVERMYDVTPPGVVMGLAWTAMGGSTLFVETSLRRPQDKDAKGDKDGSLEVTGQLGEVMKESARIAYTFARAFLMQHAPANDYLVTSHIHLHVPEGATPKDGPSAGCTIVTALLSLAMGRPVRQNLAMTGEVSLTGKILPVGGIKEKTIAAKRAGVTCIVLPAENKKDFYDLAAFITEGLEVHFVEHYREIFDIAFPDEQAEALAVER
# Target: Antibody_82-M1
# Assay: SPR; Biacore 8K; antibody captured on a Protein G chip; gradient concentrations of LONP1 as analyte; 1x HBS-EP buffer; fitted to a 1:1 binding model
# Sequence of Antibody_82-M1 (heavy, as listed by the source, chain 1 of 2): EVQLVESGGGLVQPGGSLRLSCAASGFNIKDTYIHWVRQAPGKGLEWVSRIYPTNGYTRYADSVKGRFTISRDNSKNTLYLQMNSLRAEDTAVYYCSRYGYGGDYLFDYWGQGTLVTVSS
# Sequence of Antibody_82-M1 (light, as listed by the source, chain 2 of 2): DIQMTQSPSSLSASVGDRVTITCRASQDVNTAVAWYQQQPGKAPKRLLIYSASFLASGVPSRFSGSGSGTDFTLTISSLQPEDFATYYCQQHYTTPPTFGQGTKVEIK
binder,measurement,value
B1,Kd,0.829 nM
same,koff,0.000151 s⁻¹
same,kon,182000 M⁻¹ s⁻¹
